# Publication PMC3916536
# How the values were obtained:
# [1] = target: HLA-A2/D76N β2m/NY-ESO-1(Y1V9) complex; experiment: native MS; nano-ESI-MS, 10 μM protein, 100 mM ammonium acetate, pH 7, declustering potential 50 V, complexes with peptide I
# [2] = target: HLA-A2/WT β2m/NY-ESO-1(Y1V9) complex; experiment: as above
stoichiometry N [1],stoichiometry N [2],Substance
2,,HLA-A2/D76N β2m/NY-ESO-1(Y1V9) complex (from UniProt P61769 21-119) (peptide-MHC)
,2,HLA-A2/WT β2m/NY-ESO-1(Y1V9) complex (from UniProt P61769 21-119) (peptide-MHC)
